The target in assay [1] is T1, BCMA-rFc fusion protein (extracellular domain of human BCMA, residues 1-54, fused to rabbit IgG Fc) (human; rabbit, UniProt Q02223 1-54).
T1 construct: range 1-54; also called recombinant BCMA-rFc; not shown: rabbit IgG heavy chain hinge region and Fc region (CH2 and CH3 domains), from vector pFUSE-rFc1 (InvivoGen); limits not
T1 sequence (looked up): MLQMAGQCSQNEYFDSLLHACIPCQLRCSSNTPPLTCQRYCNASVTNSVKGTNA
Briefly: bio-layer interferometry (BLITZ), BCMA-rFc immobilized by amine coupling, mAb in solution.

The target of assay [2] is full-length human BCMA (TNFRSF17, CD269) on the cell surface (human) (UniProt Q02223). Put plainly: cell-based or functional assay.
The target of assay [3] is BCMA (target of the LMB70 affinity measurement; not named, form not stated) (UniProt Q02223). Briefly: affinity measurement after the first labeling; method and target not stated.
The target of assay [4] is T2, full-length human BCMA (TNFRSF17, CD269) on the cell surface (human, UniProt Q02223 1-184).
T2 sequence (looked up): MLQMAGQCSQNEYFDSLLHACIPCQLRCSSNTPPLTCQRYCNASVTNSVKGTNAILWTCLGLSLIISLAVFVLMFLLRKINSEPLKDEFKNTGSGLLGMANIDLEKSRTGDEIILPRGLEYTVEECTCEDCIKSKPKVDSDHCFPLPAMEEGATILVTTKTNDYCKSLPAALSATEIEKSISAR
Put plainly: cell-based or functional assay.

Usually Kd stands for the free concentration of one partner at which half of the binding sites on the other are occupied at equilibrium, for simple one-to-one binding. A higher Kd goes with weaker binding. Usually koff stands for the rate constant with which the complex falls apart. A high value points to a short-lived complex. Broadly, the kon is the second-order rate constant of association.

B1: BM24 anti-BCMA monoclonal antibody (antibody, V domains shown)
VH: EVQLQQSGPELVKPGASVKMSCKASGNTLTNYVIHWMKQMPGQGLDWIGYILPYNDLTKYNEKFTGKATLTSDKSSSSAYMELNSLTSEDSAVYYCTRWDWDGFFDPWGQGTTLTVSS
VL: DIVMTQSPLSLPVSLGDQASISCRSTQSLVHSNGNTHLHWYLQRPGQSPKLLIYSVSNRFSEVPDRFSASGSGTDFTLKISRVEAEDLGVYFCSQTSHIPYTFGGGTKLEIKR
notes: Mouse hybridoma mAb, IgG1 with a kappa light chain
In assay [1], B1 registered a dissociation constant (Kd) of under 1 pM, a koff of under 1e-07 s⁻¹ and an on-rate (kon) of 297000 M⁻¹ s⁻¹.

B2: LMB70: BM306-Fab-LR-GGS immunotoxin (protein, part only; not given: Fab constant domains and toxin part)
VH: EVQLQQSGPELVKPGASVKISCKTSGYTFTEYTINWVKQSHGKSLEWIGDIYPDNYNIRYNQKFKGKATLTVDKSSSTAYMELRSLSSEDSAIYYCANHDFFVFWGQGTLVTVSA
VL: DIQMTQATSSLSASLGDRVTINCRTSQDISNHLNWYQQKPDGTVKLLIYYTSRLQSGVPSRFSGSGSGTDYSLTISNLEQEDIGTYFCHQGNTLPPTFGGGTKLEIK
modifications: Fused to a Pseudomonas exotoxin domain III variant (PE-LR-GGS), which the letters do not carry.
In assay [2], B2 yielded an IC50 (ng/ml), WST assay, H929 cells of 1.1 ng/mL; an IC50 (ng/ml), WST assay, JJN-3 cells of 4 ng/mL; an IC50 (ng/ml), WST assay, KMS-18 cells of 65 ng/mL; an IC50 (ng/ml), WST assay, LP-1 cells of 20 ng/mL. In assay [2], this molecule gave an IC50 (ng/ml), WST assay, RPMI-8226 cells of 5.1 ng/mL; an IC50 (ng/ml), WST assay, U266B cells of 5 ng/mL; an IC50, WST assay, H929 cells of 1 to 1.5 ng/mL. In assay [3], this molecule displayed a Bmax of 2220.

B3: BM306 anti-BCMA monoclonal antibody (antibody, V domains shown)
VH: B2 VH
VL: DIQMTQATSSLSASLGDRVTINCRTSQDISNHLNWYQQKPDGTVKLLIYYTSRLQSGVPSRFSGSGSGTDYSLTISNLEQEDIGTYFCHQGNTLPPTFGGGTKLEIKR
notes: as for B1
In the case of B3, in assay [4], the “IC50 (ng/ml), WST assay, H929 cells” value was over 1000 ng/mL; the “IC50 (ng/ml), WST assay, JJN-3 cells” value was over 1000 ng/mL; the “IC50 (ng/ml), WST assay, RPMI-8226 cells” value is over 1000 ng/mL; the “IC50 (ng/ml), WST assay, U266B cells” value was over 1000 ng/mL. Moreover, in assay [1], the Kd was under 1 pM, the koff was under 1e-07 s⁻¹ and the kon is 415000 M⁻¹ s⁻¹.

(Values after patent US20180318435A1 (UNITED STATES OF AMERICA AS REPRESENTED BY THE SECRETARY …, published 2018).)
